Test [1] deals with T1, full-length human HACE1 (HECT domain and Ankyrin repeat containing E3 Ubiquitin Protein Ligase 1), wild type, aa 1-909 (human), Q8IYU2.
T1 chain: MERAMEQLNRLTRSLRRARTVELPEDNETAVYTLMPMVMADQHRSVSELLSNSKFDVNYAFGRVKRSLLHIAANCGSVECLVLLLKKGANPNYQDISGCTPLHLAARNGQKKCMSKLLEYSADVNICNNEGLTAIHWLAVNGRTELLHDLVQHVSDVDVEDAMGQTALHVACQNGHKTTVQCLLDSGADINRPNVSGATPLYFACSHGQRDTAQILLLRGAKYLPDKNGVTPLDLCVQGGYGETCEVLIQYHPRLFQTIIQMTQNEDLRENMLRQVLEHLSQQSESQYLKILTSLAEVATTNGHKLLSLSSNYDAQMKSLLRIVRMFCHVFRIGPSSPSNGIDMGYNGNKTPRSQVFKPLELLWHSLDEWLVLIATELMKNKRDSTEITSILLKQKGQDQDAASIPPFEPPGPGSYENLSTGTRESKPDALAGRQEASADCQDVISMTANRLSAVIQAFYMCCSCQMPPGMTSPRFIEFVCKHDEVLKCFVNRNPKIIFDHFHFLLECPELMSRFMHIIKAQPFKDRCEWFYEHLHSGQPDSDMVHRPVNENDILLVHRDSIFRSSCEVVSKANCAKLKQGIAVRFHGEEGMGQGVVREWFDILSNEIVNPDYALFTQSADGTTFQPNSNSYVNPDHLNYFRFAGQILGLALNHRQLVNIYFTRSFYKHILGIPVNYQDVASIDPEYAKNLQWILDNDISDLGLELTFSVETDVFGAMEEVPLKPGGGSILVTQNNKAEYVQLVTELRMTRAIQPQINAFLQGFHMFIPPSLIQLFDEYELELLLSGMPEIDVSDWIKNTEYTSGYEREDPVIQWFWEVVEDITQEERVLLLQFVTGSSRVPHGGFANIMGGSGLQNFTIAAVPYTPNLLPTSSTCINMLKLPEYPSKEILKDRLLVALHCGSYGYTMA
The test is described as follows: AUC; sedimentation velocity, 40 000 rpm, 20 °C, continuous c(s) distribution model. Conditions: remark: other sources report otherwise.

For test [2], the target named is T1, full-length human HACE1 (HECT domain …). Kind of test: SEC; gel filtration of purified full-length HACE1 (Superdex; 20 mM HEPES pH 8.0, 150 mM NaCl, 5% glycerol, 1 mM DTT). The conditions noted are these: remark: other sources report otherwise. For orientation: Size exclusion chromatography separates by hydrodynamic size, large species first.

B1: full-length human HACE1 (HECT domain and Ankyrin repeat containing E3 Ubiquitin Protein Ligase 1), wild type, aa 1-909, Q8IYU2 1-909 (enzyme)
chain: T1 chain
As a reminder, the stoichiometry N is the number of molecules, sites or subunits per partner or assembly. In turn, B1 gave a percent of molecules as dimer or higher oligomers in test [1] of 79%. This molecule also had a stoichiometry N in test [2] of 2.

The values are drawn from PMC10520629.
